The target of one experiment is TMR-BID BH3. Briefly: fluorescence polarisation; fluorescence anisotropy; Bcl-xL titrated into TMR-BID BH3 (5 nM) in sodium phosphate buffer (50 mM, pH 7.5) with sodium chloride (10 mM), 15 °C; fit to the Langmuir isotherm, apparent dissociation constant, at least three independent curves averaged.
Another experiment concerns the target Bcl-xL (UniProt Q07817). Briefly: not stated; fluorescently labelled peptide with Bcl-xL; data in Table S4.

Ends that are not written are not given here. fluorophore = not defined here

In the case of “Bcl-xL (from UniProt Q07817-1 1-209) (domain or fragment)”, the Kd with TMR-BID BH3 was 27 nM.

B1: LOV-BID peptide (peptide)
peptide: DC(fluorophore)AEDIGVNIARHLAQVGDSIDRSI
modifications: reading uncertain; also: fluorophore not named
B1 showed a Kd with Bcl-xL of 46 nM.

(Values after paper PMC5063126.)
